Assay [1] has as its target GDNF family receptor alpha 1 (GFRA1) (UniProt P56159). Nature of the assay: cell-based or functional assay.
In assay [2] the target is trans-membrane receptor kinase RET (UniProt P07949). Nature of the assay: cell-based or functional assay.

Results on one substance are retold here after US20150309037A1.

trans-membrane receptor kinase RET, sequence (P07949 29-1114 limits assumed): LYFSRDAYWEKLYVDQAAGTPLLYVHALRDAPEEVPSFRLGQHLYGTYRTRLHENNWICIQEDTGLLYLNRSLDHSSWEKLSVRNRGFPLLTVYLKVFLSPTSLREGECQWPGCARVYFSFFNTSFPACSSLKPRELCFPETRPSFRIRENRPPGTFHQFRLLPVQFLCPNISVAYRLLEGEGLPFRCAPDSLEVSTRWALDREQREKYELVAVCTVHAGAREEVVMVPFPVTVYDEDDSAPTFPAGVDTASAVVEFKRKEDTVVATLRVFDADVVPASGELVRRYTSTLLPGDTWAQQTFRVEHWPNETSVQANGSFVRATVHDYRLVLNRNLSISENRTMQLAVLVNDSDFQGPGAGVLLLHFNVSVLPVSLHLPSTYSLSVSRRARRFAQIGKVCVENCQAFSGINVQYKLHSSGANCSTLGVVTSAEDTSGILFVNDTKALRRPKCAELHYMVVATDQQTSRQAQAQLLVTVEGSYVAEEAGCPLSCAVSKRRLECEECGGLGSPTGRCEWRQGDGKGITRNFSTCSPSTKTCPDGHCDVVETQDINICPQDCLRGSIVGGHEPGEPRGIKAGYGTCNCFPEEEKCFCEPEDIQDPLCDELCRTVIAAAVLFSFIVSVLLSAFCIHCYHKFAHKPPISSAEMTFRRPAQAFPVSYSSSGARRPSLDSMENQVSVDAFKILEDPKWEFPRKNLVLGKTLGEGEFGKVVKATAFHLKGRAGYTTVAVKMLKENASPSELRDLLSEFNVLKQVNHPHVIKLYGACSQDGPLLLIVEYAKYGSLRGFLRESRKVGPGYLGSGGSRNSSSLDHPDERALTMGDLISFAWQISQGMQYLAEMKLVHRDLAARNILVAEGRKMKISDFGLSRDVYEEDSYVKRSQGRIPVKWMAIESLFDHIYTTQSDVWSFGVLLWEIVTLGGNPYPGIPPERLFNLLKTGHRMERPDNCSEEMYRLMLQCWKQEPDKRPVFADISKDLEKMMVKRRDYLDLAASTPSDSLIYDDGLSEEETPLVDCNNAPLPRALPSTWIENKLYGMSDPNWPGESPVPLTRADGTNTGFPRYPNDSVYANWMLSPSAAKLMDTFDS
GDNF family receptor alpha 1 (GFRA1), sequence (P56159 25-429 limits assumed): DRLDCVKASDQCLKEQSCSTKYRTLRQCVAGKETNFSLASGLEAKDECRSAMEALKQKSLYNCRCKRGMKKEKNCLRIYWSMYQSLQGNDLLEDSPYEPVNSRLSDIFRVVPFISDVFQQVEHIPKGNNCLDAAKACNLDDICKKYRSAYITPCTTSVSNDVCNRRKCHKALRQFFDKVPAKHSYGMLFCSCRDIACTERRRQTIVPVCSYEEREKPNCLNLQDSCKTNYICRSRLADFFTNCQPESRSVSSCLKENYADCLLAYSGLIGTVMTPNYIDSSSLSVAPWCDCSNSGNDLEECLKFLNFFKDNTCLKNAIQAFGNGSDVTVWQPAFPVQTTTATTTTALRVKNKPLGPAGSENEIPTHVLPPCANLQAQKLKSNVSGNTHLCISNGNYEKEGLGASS

Turning to “glial cell line-derived neurotrophic factor (GDNF) (from UniProt P39905 78-211) (ligand)”, the proliferation, GDNF concentration of maximum stimulation in assay [1] and in assay [2] was 10 ng/mL each time.
